These results are taken from paper PMC12344693, “Human Milk Oligosaccharides Multivalently Presented on Defined Synthetic Neo-Glycoproteins Are Nanomolar Ligands of Tandem-Repeat Galectins” (Biomacromolecules, 2025).

The target in test [1] is full-length recombinant human galectin-8, N-terminal His-tagged (human) (UniProt O00214). Put plainly: ELISA; competitive: ASF (0.1 μM in PBS) immobilised on microtiter plates; serial dilutions of inhibitor in EPBS (PBS with 2 mM EDTA) incubated 2 h with a constant galectin concentration ([…] Gal-1, Gal-3, Gal-4; 0.5 μM Gal-8, Gal-9); residual galectin on ASF detected with anti-His-tag-HRP. For orientation: ELISA stands for enzyme-linked immunosorbent assay.

The target in test [2] is Asialofetuin (UniProt P12763). Put plainly: ELISA; direct ELISA: ASF immobilised on microtiter plates, serial dilution of the galectin in EPBS (PBS with 2 mM EDTA, 50 µL/well); otherwise as the competitive ELISA (anti-His-tag-HRP detection).
Test [3] deals with His-tagged galectin-1 (C2S) (human). Put plainly: ELISA; competitive ELISA: ASF (0.1 µM in PBS) immobilised, serial dilutions of the neo-glycoprotein in EPBS incubated with […] Gal-1 or Gal-3 for 2 h; galectin left on ASF detected with anti-His-tag-HRP.
Sequence of His-tagged galectin-1 (C2S) (human) (P09382 other isoform, or with tags, fused parts or gaps): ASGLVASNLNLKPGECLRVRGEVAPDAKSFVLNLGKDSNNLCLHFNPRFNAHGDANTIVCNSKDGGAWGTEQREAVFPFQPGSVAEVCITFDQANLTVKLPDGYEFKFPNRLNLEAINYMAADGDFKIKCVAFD

Sequence of full-length recombinant human galectin-8, N-terminal His-tagged (human) (O00214 whole entry): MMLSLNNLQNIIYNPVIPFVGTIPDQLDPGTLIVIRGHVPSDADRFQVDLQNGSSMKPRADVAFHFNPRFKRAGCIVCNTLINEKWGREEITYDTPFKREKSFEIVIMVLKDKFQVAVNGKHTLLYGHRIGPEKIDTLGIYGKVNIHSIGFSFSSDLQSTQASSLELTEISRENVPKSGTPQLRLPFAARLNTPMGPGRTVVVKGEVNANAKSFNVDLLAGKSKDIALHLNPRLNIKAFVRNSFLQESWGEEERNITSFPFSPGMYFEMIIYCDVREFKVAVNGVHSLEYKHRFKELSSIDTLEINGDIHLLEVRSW
Sequence of Asialofetuin (P12763 19-359): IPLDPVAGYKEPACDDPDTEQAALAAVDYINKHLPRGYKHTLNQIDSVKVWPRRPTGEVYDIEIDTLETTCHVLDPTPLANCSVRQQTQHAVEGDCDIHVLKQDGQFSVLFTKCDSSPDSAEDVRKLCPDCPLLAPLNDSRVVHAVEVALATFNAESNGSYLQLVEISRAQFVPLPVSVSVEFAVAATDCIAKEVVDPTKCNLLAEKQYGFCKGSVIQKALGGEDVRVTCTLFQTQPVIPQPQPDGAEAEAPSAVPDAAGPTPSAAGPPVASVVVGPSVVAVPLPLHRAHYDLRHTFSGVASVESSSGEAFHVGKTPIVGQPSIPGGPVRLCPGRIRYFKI

By IC50 is commonly meant the concentration at which inhibition is half-maximal. For “neo-glycoprotein NGP4 (LN1-LN2-HSA) (from UniProt P02768 25-609)”, in test [1], the IC50 was 600 nM.

By Kd is commonly meant a measure of binding affinity in units of concentration. As for Gal-9-AVI-link (natural protein), the dissociation constant Kd in test [2] was 180 nM. Consider “neo-glycoprotein NGP5 (LN2-Lac-HSA) (from UniProt P02768 25-609)”, for which, in test [1], the 50% inhibitory concentration (IC50) was 200 nM. On the same count and under the same terms, for “neo-glycoprotein NGP1 (Lac-HSA) (from UniProt P02768 25-609)” the value was above 20000 nM; for “neo-glycoprotein NGP7 (LDN-Lac-HSA) (from UniProt P02768 25-609)”, 400 nM. For “neo-glycoprotein NGP2 (LN2-HSA) (from UniProt P02768 25-609)”, in test [1], the IC50 was above 20000 nM. In turn, “Neo-glycoprotein NGP1 (Lac-HSA) (from UniProt P02768 25-609)” displayed an IC50 in test [3] above 20000 nM. On the same count and under the same terms, for “Neo-glycoprotein NGP4 (LN1-LN2-HSA) (from UniProt P02768 25-609)” the value was above 20000 nM. On to “Neo-glycoprotein NGP8 (LDN-LN2-HSA) (from UniProt P02768 25-609)”, for which the IC50 in test [3] is above 20000 nM. With Gal-8-AVI-link (natural protein), in test [2], the Kd was 320 nM.
